From patent publication US11965039B2, “Compstatin analogues and their medical uses” (priority 2018, dated 2024)
Starred links: 1 amine or outer side, 2 acyl side, 3 side chain; linkers in the order of their positions; H or OH if unused. Positions of bridges follow the written chain, without caps; N, C: chain ends. Non-standard residues stand in square brackets, D forms with d. Groups on a side chain read outwards from the residue. *: point of attachment. Trp(1-Me) = Cn1cc(C[C@H](N)C(=O)O)c2ccccc21; C18 diacid = O=C(O)CCCCCCCCCCCCCCCCC(=O)*; C16 diacid = O=C(O)CCCCCCCCCCCCCCC(=O)*; γGlu = O=C(O)[C@H](CCC(=O)[*:2])N[*:1]; AEEA = NCCOCCOCC(=O)O; Sar = CNCC(=O)O

How the values were obtained:
[1] = target: T1, Human C3 (Complement tech cat #A113c) (human, UniProt P01024 23-1663); assay: cell-based or functional assay
T1 sequence (P01024 23-1663 limits assumed): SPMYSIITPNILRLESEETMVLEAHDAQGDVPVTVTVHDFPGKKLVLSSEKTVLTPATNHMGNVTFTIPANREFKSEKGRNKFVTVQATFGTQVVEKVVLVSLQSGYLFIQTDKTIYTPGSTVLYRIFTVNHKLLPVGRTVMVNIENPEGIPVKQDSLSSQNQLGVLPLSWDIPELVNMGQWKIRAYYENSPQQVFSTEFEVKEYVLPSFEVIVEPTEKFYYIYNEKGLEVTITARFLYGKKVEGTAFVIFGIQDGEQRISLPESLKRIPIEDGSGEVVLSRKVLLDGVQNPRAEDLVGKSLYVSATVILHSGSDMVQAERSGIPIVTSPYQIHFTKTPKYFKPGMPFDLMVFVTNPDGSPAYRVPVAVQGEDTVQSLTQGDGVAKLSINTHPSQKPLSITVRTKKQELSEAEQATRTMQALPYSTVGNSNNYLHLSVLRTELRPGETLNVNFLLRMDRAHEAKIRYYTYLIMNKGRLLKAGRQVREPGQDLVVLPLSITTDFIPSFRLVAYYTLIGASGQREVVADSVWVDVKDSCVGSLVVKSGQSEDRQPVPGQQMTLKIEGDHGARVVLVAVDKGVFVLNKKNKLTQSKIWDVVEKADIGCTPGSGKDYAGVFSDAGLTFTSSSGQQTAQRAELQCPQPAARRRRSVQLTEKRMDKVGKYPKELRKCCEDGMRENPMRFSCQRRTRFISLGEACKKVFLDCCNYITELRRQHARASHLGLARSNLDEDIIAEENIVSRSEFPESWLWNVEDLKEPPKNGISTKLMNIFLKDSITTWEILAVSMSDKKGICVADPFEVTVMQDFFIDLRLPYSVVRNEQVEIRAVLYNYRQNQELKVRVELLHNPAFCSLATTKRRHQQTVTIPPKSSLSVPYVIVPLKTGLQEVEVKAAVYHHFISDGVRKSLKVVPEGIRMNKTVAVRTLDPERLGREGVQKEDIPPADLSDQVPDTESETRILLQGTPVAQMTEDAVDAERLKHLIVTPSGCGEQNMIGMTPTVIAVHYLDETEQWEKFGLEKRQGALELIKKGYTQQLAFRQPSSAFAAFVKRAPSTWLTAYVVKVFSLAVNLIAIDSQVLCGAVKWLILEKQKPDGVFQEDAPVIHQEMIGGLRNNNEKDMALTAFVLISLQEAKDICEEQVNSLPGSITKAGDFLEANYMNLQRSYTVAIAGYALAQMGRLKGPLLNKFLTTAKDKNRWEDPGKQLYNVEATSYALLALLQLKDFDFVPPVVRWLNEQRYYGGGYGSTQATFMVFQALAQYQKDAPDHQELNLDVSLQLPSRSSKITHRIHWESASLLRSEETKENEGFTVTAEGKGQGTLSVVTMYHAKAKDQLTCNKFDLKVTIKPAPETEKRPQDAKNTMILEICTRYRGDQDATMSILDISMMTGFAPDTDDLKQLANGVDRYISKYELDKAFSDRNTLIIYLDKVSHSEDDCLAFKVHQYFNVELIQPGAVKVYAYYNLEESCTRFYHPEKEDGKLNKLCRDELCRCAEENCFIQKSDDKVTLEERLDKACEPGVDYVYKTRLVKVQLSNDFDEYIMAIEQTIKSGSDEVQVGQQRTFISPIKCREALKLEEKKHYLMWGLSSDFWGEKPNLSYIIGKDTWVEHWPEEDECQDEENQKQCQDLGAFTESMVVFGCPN

[2] = target: T1, Human C3 (Complement tech cat #A113c); assay: SPR (Biacore T200), human C3 immobilised, peptide injected, 1:1 fit
Description: Surface plasmon resonance (SPR) was used to characterize peptides with respect to their binding affinity (Kd) for C3. Human C3 (Complement tech cat #A113c) was immobilised on individual flow cells of CM5 sensor chips (GE Healthcare) using standard amine coupling to a density of approximately 3000 resonance units (RU) in a buffer consisting of 10 mM phosphate pH 7.4, 150 mM NaCl, 0.05% Tween20.
For interaction experiments a multi-cycle experiment approach was used and performed using a BiacoreT200™ instrument (GE Healthcare) at 25° C. Peptides were injected in increasing concentration series (6-8 different concentrations) for 60-120 sat a flow rate of 30 µL/min in a buffer consisting of 10 mM Tris buffer at pH 7.4, with 150 mM NaCl and 0.05% Tween20. This was followed by a dissociation period for up to 10 min. The C3 surface was regenerated between runs by a 45 s injection of 3 M MgCl_2.

| Binder | Kd [2] [nM] | inhibition of hemolysis IC50 [1] [nM] |
| --- | --- | --- |
| Ac-SEFCI[Trp(1-Me)]QDWGEHRC[Sar]EGE-{AEEA-AEEA-K(γGlu-Gly-γGlu-17-carboxy-heptadecanoyl)-NH2} (disulfide 4-14) [Compound 123] | 11 | < 100 |
| Ac-SEFCI[Trp(1-Me)]QEWGEHRC[Sar]EGE-{AEEA-AEEA-K(γGlu-Gly-γGlu-17-carboxy-heptadecanoyl)-NH2} (disulfide 4-14) [Compound 124] | 31 | < 100 |
| Ac-SEYCI[Trp(1-Me)]QEWGEHRC[Sar]EGE-{AEEA-AEEA-K(γGlu-Gly-γGlu-17-carboxy-heptadecanoyl)-NH2} (disulfide 4-14) [Compound 125] | 71 | < 500 |
| Ac-SEYCI[Trp(1-Me)]QDWGEHRC[Sar]EGE-{AEEA-AEEA-K(γGlu-Gly-γGlu-17-carboxy-heptadecanoyl)-NH2} (disulfide 4-14) [Compound 117] | 24 | < 250 |
| Ac-SEYCI[Trp(1-Me)]QDWGEHRC[Sar]EGAK([AEEA-γGlu-AEEA-Gly-γGlu-C18 diacid])-NH2 (disulfide 4-14; SMILES CC[C@H](C)[C@@H]1NC(=O)[C@@H](NC(=O)[C@H](Cc2ccc(O)cc2)NC(=O)[C@H](CCC(=O)O)NC(=O)[C@H](CO)NC(C)=O)CSSC[C@@H](C(=O)N(C)CC(=O)N[C@@H](CCC(=O)O)C(=O)NCC(=O)N[C@@H](C)C(=O)N[C@@H](CCCCNC(=O)COCCOCCNC(=O)CC[C@H](NC(=O)COCCOCCNC(=O)CNC(=O)CC[C@H](NC(=O)CCCCCCCCCCCCCCCCC(=O)O)C(=O)O)C(=O)O)C(N)=O)NC(=O)[C@H](CCCNC(=N)N)NC(=O)[C@H](Cc2c[nH]cn2)NC(=O)[C@H](CCC(=O)O)NC(=O)CNC(=O)[C@H](Cc2c[nH]c3ccccc23)NC(=O)[C@H](CC(=O)O)NC(=O)[C@H](CCC(N)=O)NC(=O)[C@H](Cc2cn(C)c3ccccc23)NC1=O) [Compound 118] | 11 | < 100 |
| Ac-SEFCI[Trp(1-Me)]QEWGEHRC[Sar]EGAK([AEEA-γGlu-AEEA-Gly-γGlu-C18 diacid])-NH2 (disulfide 4-14; SMILES CC[C@H](C)[C@@H]1NC(=O)[C@@H](NC(=O)[C@H](Cc2ccccc2)NC(=O)[C@H](CCC(=O)O)NC(=O)[C@H](CO)NC(C)=O)CSSC[C@@H](C(=O)N(C)CC(=O)N[C@@H](CCC(=O)O)C(=O)NCC(=O)N[C@@H](C)C(=O)N[C@@H](CCCCNC(=O)COCCOCCNC(=O)CC[C@H](NC(=O)COCCOCCNC(=O)CNC(=O)CC[C@H](NC(=O)CCCCCCCCCCCCCCCCC(=O)O)C(=O)O)C(=O)O)C(N)=O)NC(=O)[C@H](CCCNC(=N)N)NC(=O)[C@H](Cc2c[nH]cn2)NC(=O)[C@H](CCC(=O)O)NC(=O)CNC(=O)[C@H](Cc2c[nH]c3ccccc23)NC(=O)[C@H](CCC(=O)O)NC(=O)[C@H](CCC(N)=O)NC(=O)[C@H](Cc2cn(C)c3ccccc23)NC1=O) [Compound 120] | 28 | < 250 |
| Ac-SEYCI[Trp(1-Me)]QEWGEHRC[Sar]EGAK([AEEA-γGlu-AEEA-Gly-γGlu-C18 diacid])-NH2 (disulfide 4-14; SMILES CC[C@H](C)[C@@H]1NC(=O)[C@@H](NC(=O)[C@H](Cc2ccc(O)cc2)NC(=O)[C@H](CCC(=O)O)NC(=O)[C@H](CO)NC(C)=O)CSSC[C@@H](C(=O)N(C)CC(=O)N[C@@H](CCC(=O)O)C(=O)NCC(=O)N[C@@H](C)C(=O)N[C@@H](CCCCNC(=O)COCCOCCNC(=O)CC[C@H](NC(=O)COCCOCCNC(=O)CNC(=O)CC[C@H](NC(=O)CCCCCCCCCCCCCCCCC(=O)O)C(=O)O)C(=O)O)C(N)=O)NC(=O)[C@H](CCCNC(=N)N)NC(=O)[C@H](Cc2c[nH]cn2)NC(=O)[C@H](CCC(=O)O)NC(=O)CNC(=O)[C@H](Cc2c[nH]c3ccccc23)NC(=O)[C@H](CCC(=O)O)NC(=O)[C@H](CCC(N)=O)NC(=O)[C@H](Cc2cn(C)c3ccccc23)NC1=O) [Compound 122] | 63 | < 500 |
| Ac-SEFCI[Trp(1-Me)]QDWGEHRC[Sar]EGAK([AEEA-γGlu-AEEA-Gly-γGlu-C18 diacid])-NH2 (disulfide 4-14; SMILES CC[C@H](C)[C@@H]1NC(=O)[C@@H](NC(=O)[C@H](Cc2ccccc2)NC(=O)[C@H](CCC(=O)O)NC(=O)[C@H](CO)NC(C)=O)CSSC[C@@H](C(=O)N(C)CC(=O)N[C@@H](CCC(=O)O)C(=O)NCC(=O)N[C@@H](C)C(=O)N[C@@H](CCCCNC(=O)COCCOCCNC(=O)CC[C@H](NC(=O)COCCOCCNC(=O)CNC(=O)CC[C@H](NC(=O)CCCCCCCCCCCCCCCCC(=O)O)C(=O)O)C(=O)O)C(N)=O)NC(=O)[C@H](CCCNC(=N)N)NC(=O)[C@H](Cc2c[nH]cn2)NC(=O)[C@H](CCC(=O)O)NC(=O)CNC(=O)[C@H](Cc2c[nH]c3ccccc23)NC(=O)[C@H](CC(=O)O)NC(=O)[C@H](CCC(N)=O)NC(=O)[C@H](Cc2cn(C)c3ccccc23)NC1=O, also called Compound No 119) [Compound 119] | 9.8 | < 100 |

These reach a lower Kd [2]. Values come first.

| Kd [2] [nM] | Binder | inhibition of hemolysis IC50 [1] [nM] |
| --- | --- | --- |
| 8.2 | Ac-EGSAYCI[Trp(1-Me)]QDWGEHRC[Sar]EK[γGlu]K([AEEA-AEEA-γGlu-C18 diacid])-NH2 (disulfide 6-16; SMILES CC[C@H](C)[C@@H]1NC(=O)[C@@H](NC(=O)[C@H](Cc2ccc(O)cc2)NC(=O)[C@H](C)NC(=O)[C@H](CO)NC(=O)CNC(=O)[C@H](CCC(=O)O)NC(C)=O)CSSC[C@@H](C(=O)N(C)CC(=O)N[C@@H](CCC(=O)O)C(=O)N[C@@H](CCCCN)C(=O)N[C@@H](CCC(=O)N[C@@H](CCCCNC(=O)COCCOCCNC(=O)COCCOCCNC(=O)CC[C@H](NC(=O)CCCCCCCCCCCCCCCCC(=O)O)C(=O)O)C(N)=O)C(=O)O)NC(=O)[C@H](CCCNC(=N)N)NC(=O)[C@H](Cc2c[nH]cn2)NC(=O)[C@H](CCC(=O)O)NC(=O)CNC(=O)[C@H](Cc2c[nH]c3ccccc23)NC(=O)[C@H](CC(=O)O)NC(=O)[C@H](CCC(N)=O)NC(=O)[C@H](Cc2cn(C)c3ccccc23)NC1=O) [Compound 111] | < 100 |
| 6.1 | {C16 diacid}-EGSEYCI[Trp(1-Me)]QDWGEHRC[Sar]E-NH2 (disulfide 6-16; also: places 15-carboxy-pentadecanoyl on side chain of Glu1, mods on N-terminus) [Compound 107] | < 100 |
| 5.4 | Ac-SAYCI[Trp(1-Me)]QDWGEHRC[Sar]EK([γGlu-Gly-γGlu-C18 diacid])-NH2 (disulfide 4-14; SMILES CC[C@H](C)[C@@H]1NC(=O)[C@@H](NC(=O)[C@H](Cc2ccc(O)cc2)NC(=O)[C@H](C)NC(=O)[C@H](CO)NC(C)=O)CSSC[C@@H](C(=O)N(C)CC(=O)N[C@@H](CCC(=O)O)C(=O)N[C@@H](CCCCNC(=O)CC[C@H](NC(=O)CNC(=O)CC[C@H](NC(=O)CCCCCCCCCCCCCCCCC(=O)O)C(=O)O)C(=O)O)C(N)=O)NC(=O)[C@H](CCCNC(=N)N)NC(=O)[C@H](Cc2c[nH]cn2)NC(=O)[C@H](CCC(=O)O)NC(=O)CNC(=O)[C@H](Cc2c[nH]c3ccccc23)NC(=O)[C@H](CC(=O)O)NC(=O)[C@H](CCC(N)=O)NC(=O)[C@H](Cc2cn(C)c3ccccc23)NC1=O) [Compound 106] | < 250 |
| 3 | Ac-EGSAYCI[Trp(1-Me)]QDWGEHRC[Sar]E-NH2 (disulfide 6-16; SMILES CC[C@H](C)[C@@H]1NC(=O)[C@@H](NC(=O)[C@H](Cc2ccc(O)cc2)NC(=O)[C@H](C)NC(=O)[C@H](CO)NC(=O)CNC(=O)[C@H](CCC(=O)O)NC(C)=O)CSSC[C@@H](C(=O)N(C)CC(=O)N[C@@H](CCC(=O)O)C(N)=O)NC(=O)[C@H](CCCNC(=N)N)NC(=O)[C@H](Cc2c[nH]cn2)NC(=O)[C@H](CCC(=O)O)NC(=O)CNC(=O)[C@H](Cc2c[nH]c3ccccc23)NC(=O)[C@H](CC(=O)O)NC(=O)[C@H](CCC(N)=O)NC(=O)[C@H](Cc2cn(C)c3ccccc23)NC1=O) [Compound 54] | < 100 |
| 1.4 | Ac-EGSAFCI[Trp(1-Me)]QDWGEHRC[Sar]E-NH2 (disulfide 6-16; SMILES CC[C@H](C)[C@@H]1NC(=O)[C@@H](NC(=O)[C@H](Cc2ccccc2)NC(=O)[C@H](C)NC(=O)[C@H](CO)NC(=O)CNC(=O)[C@H](CCC(=O)O)NC(C)=O)CSSC[C@@H](C(=O)N(C)CC(=O)N[C@@H](CCC(=O)O)C(N)=O)NC(=O)[C@H](CCCNC(=N)N)NC(=O)[C@H](Cc2c[nH]cn2)NC(=O)[C@H](CCC(=O)O)NC(=O)CNC(=O)[C@H](Cc2c[nH]c3ccccc23)NC(=O)[C@H](CC(=O)O)NC(=O)[C@H](CCC(N)=O)NC(=O)[C@H](Cc2cn(C)c3ccccc23)NC1=O) [Compound 53] | < 100 |
